Measurements reported in the nanobody polyreactivity screen of Harvey et al. (2022).

assay: yeast display, Sf9 membrane polyspecificity reagent, FACS + sequencing; frameworks hold sequencing errors
Procedure, shortened: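 Using colony PCR, genes from sorted yeast display clones were amplified, then sequenced on MiSeq at 2 × 250 and filtered by CDR length. The clones had been stained with 10% biotinylated, detergent-solubilized Sf9 membrane reagent for 1 hour at 4 °C and sorted by FACS into low and high (top ~1%) gates on anti-HA and streptavidin fluorescence. Polyreactivity labels come from the gate of origin.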

Row | Sequence | polyreactivity (PSR sort gate)
1 | QVQLVESGGGLVQAGGSLRLSCAASGNIFVFYVMGWYRQAPGNEREFVASFSSTGNTYYADSVKGRFTISRDNAKNTVYLQLNSLKPEDTAVYYCAADSHQNVSGWLRWPRMDYWGQGTQVTVSS | low polyreactivity
2 | QVQLVESGGGLVQAGGSLRLSCAASGNIFVNYAMGWYRQAPGKERELVASINYNGGNTYYADSVKGRFTISRDNAKNTVYLQMNSLKPEDTAVYYCAKDGGGLLRWYTDEYDYWGQGTQVTVSS | low polyreactivity
3 | QVQLVESGGGLVQAGGSLRLSCAASGNIFVRYSKGWYRQAPGKERELVAVISSGGSTNYADSVKGRFTISRDNAKNTVYLQMNSLKPEDSAVYYCARKYYSQAISSRKYGYWGQGTQVTVSS | high polyreactivity
4 | QVQLVESGGGLVQAGGSLRLSCAASGNIFVTYDMGWYRQAPGKEREMVASISWNGGSTHYADSVKGLFTISGDNAKYSVYLQMNSRKPEDTAVYYCAAEYWTSYADYRYDYWGQGTQVTVSS | low polyreactivity
5 | QVQLVESGGGLVQAGGSLRLSCAASGNIFYAYDMGWYRQAPGKERELVAAITNGDSTDYADSVKGRFTISRENAKNTVYLQMNSLKPEDTAVYYCNADYLPAPWALGGSQYDYCGQGTQVTVSS | low polyreactivity
6 | QVQLVESGGGLVQAGGSLRLSCAASGNIFYGYAMGWYRQAPGKERELVAAITSSGGGTSYADSVKGRFTISRDNAKNTVYLQMNSLKPVDTAVYYCTKRPWYLSDYWGQGTQVTVSS | low polyreactivity
7 | QVQLVESGGGLVQAGGSLRLSCAASGNIFYKNTMGWYRQAPGKERELVAAISVSGGGTYYADSVKGRFTISRDNAKNTVYLQMNSLKPEDTAVYYCAASHRRSGGQPRYYYWGQGTQVSVSS | high polyreactivity
8 | QVQLVESGGGLVQAGGSLRLSCAASGNIFYQYAMGWYRQAPGKEREFVAAISISGTSTYADSVKGRFTISRDNAKNTVYLQMNSLKPEDTAVYWGQGTQVTVSS | low polyreactivity
9 | QVQLVESGGGLVQAGGSLRLSCAASGNIFYYNAMGWYRQAPGKERELVAAISDSGSSTHYADSVKGRFTISRDNAKNTVYLQMNSLKPEDTAVYYCGARATTNRFRYYYWGQGTQVTVSS | high polyreactivity
10 | QVQLVESGGGLVQAGGSLRLSCAASGNIFYYYAMGWYRQAPGKERELVATNTSGGSTNYADSVKGRFTISRDNAKNTVYLQMNSLKPEDTAVYYCAADRRRTYYWLSSYFEGYYWGQGTQVTVSS | low polyreactivity
11 | QVQLVESGGGLVQAGGSLRLSCAASGNIIAYYAMGWSRQPPGKDRELVAAITDSGGNTFYADSVKGRFTISRDNAKNSVFLQMNSLKPEDTAVYYCAADPDCWGFVYPRYDYWGQGTQVTVSS | low polyreactivity
12 | QVQLVESGGGLVQAGGSLRLSCAASGNIIVENAMGWYRQAPAKERELVAVSTSGTSTYADSVKGRFTISRDNAKITVYLQMNSLKPEDTAVYYCNARRINTLYDYWGQGTQVTVSS | low polyreactivity
13 | QVQLVESGGGLVQAGGSLRLSCAASGNILGYNAMGWYRQAPGKERELVAAITQSGGSTYYADSVKGRFTISRDNAKNTVDLQMNSLIPEDTAVYYCAAVGYYYSALDMDYWGQGTQVTVSS | low polyreactivity
14 | QVQLVESGGGLVQAGGSLRLSCAASGNILLTNAMGWYRQAPGKEREFVAAIRWSGSRTYYADSVKGRFTISRDNAKNTVYLQMNSLKPEDTAVYYCAVRAVWPVSYGYWYYYWGQGTQVTVSS | high polyreactivity
15 | QVQLVESGGGLVQAGGSLRLSCAASGNIRNYGMGCSRQAPGKERELVDAISSGGVRTYYADSVKGRFTLSRDNAKNTVYLQMNSLKPEETAVYYCAVASWYYLYPPGYRAITHDYWGQGTQVTVSS | high polyreactivity
16 | QVQLVESGGGLVQAGGSLRLSCAASGNIYNYAMGWYIQAPGKERELVAAIRSSDGSTYYADSVKGRFTISRDNAKNTVYLQMNSLKPEDTAVYDCARRTRRTSTYYYYGSRYYYWGQGTQVTVSS | high polyreactivity

Row | Sequence | polyreactivity (PSR sort gate)
17 | QVQLVESGGGLVQAGGSLRLSCAASGNTFAQYGMGWYRQAPGKEREFVAAITRRGGSTYYADSVKGRFTISRDNAKNTVYLQMNSLKPEDTAVFYCAAGHYRRRYPSYGLQEYDYWGQGTQVTVSS | high polyreactivity
18 | QVQLVESGGGLVQAGGSLRLSCAASGNTFAVNAMGWYRQAPGKERELVAAISRSGVTTRYADSVKGRFTISRDNAKNTVYLLMNSLKPEDTAVYYCNADPRLRQTRDYWGQGTQVTVSS | high polyreactivity
19 | QVQLVESGGGLVQAGGSLRLSCAASGNTFDGYDMGWYRQAPGNKRELVAAITNTGASTYYADSVKGRCTISRDNAKNTVYLQMNSLKPEDTAVYYCNAQDSYPEDRHGMSYWGQGTQVTVSS | low polyreactivity
20 | QVQLVESGGGLVQAGGSLRLSCAASGNTFDPNAMGWYRQAPGKEREFVAAISTIGSSTYYADSVKGRFTISRDNAKNTVYLQMNSLKPEDTAVYYSNADYFQDRLDYWGQGTQVTVSS | low polyreactivity
21 | QVQLVESGGGLVQAGGSLRLSCAASGNTFDRYAMGWYRQAPGKERELVAAITRSGGNTYYADSVKGRFTISRDNAKNTVYLQMNSLKPEDTAVYYCAAYFFPYYTGYGYWGQGTQVTVSS | high polyreactivity
22 | QVQLVESGGGLVQAGGSLRLSCAASGNTFGIYAMGWYRQAPGKERELVAAISSGTSTNYADSVKGRFTISRDNAKNTVYLQMNSLKPEDTAVYYCNADDQYQDVREDFWGQGTQVTVSS | low polyreactivity
23 | QVQLVESGGGLVQAGGSLRLSCAASGNTFGKYAMGWYRHAPGKERELVAAISKSSGSTYYADSVKGRFTLSRDNAKNTVYLQMNSLKPEDTAVYYCAACWYSYRYSRLGFGSWGQGTQVTVSS | high polyreactivity
24 | QVQLVESGGGLVQAGGSLRLSCAASGNTFGNYGMGWYRQAPGKEREFVAAITSRGTSTYYADSVKGRFTISRDNAKNTVYLQMNSLKPEDTAVYYCNARPRYKYPRYDYWGQGTQVTVSS | high polyreactivity
25 | QVQLVESGGGLVQAGGSLRLSCAASGNTFGTYVMGWYRQAPGKERELVAAISQSGGSTDYADSVKGRFTISRYNAKNTVYLQMNSLKPEDTAVYYCATDGHYLYNRKYYRLTRYYYWGQGTQVTVSS | low polyreactivity
26 | QVQLVESGGGLVQAGGSLRLSCAASGNTFHSNAMGWYRQAPGKERELVAAITPSDGDTYYADSVKGRFTISRDIAKNTVYLQMNSLKPEDTAVYYCAADPEPSYRFDYWGQGTQVTVSS | low polyreactivity
27 | QVQLVESGGGLVQAGGSLRLSCAASGNTFKDYTMGWFRQAPGTERELVASINSGGSTNYADSVKGRFTISRDNAKNTVYLQMNSLKPEDTAVYDCAKRAWSDYNPIDYWGQGTQVTVSS | low polyreactivity
28 | QVQLVESGGGLVQAGGSLRLSCAASGNTFKYYAMGWYRQAPGKERVLVATISRTAGSTYYADSVKGRFTISRDNAKNTVYLQMNSLKPEDTAVYYCNKDRGHPFKYDYWGQGTQVTVSS | low polyreactivity
29 | QVQLVESGGGLVQAGGSLRLSCAASGNTFLPYAMGWYRQPPGKERELVAAISWSGGSTYYADSVKGRFTISRDTAKNTVYLQMNSLKPEDTAVYYCAATPTRRYYRQSAYDYWGQGTQVTVSS | high polyreactivity
30 | QVQLVESGGGLVQAGGSLRLSCAASGNTFLVNVMGWYRQAPGKERELVASITINDGSTYYADSVKGRFTISRDNAKNTVYLQMNSLKPDDTAVYYCAADGVVPGRFFWPAHEYDYWGQGTQVTVSS | low polyreactivity
31 | QVQLVESGGGLVQAGGSLRLSCAASGNTFLYYAMGWYRQAPGKEMELVASINLSDGCTYYADSVKGRFTISRDNAKNTVYFQMTSLKPEDTAVYYCAAVFGGYTIYDYWGQGTQVTVSS | low polyreactivity
